These results are taken from patent publication US20020058800A1.

The target in the assay is murine 103 gene product, transmembrane form, on the cell surface (murine) (UniProt P14719). Put plainly: flow cytometry; digoxigenin-labelled 3E10 with anti-Dig-PE against CD4-FITC, on CD4+ T cells cultured with IL-4 + anti-IL-12 (TH2 conditions). This is the middle of three panels, between 5.2 % (after primary restimulation) and 41 % (after tertiary restimulation). [C) TH2, middle panel].
UniProt P14719, sequence (P14719 24-567): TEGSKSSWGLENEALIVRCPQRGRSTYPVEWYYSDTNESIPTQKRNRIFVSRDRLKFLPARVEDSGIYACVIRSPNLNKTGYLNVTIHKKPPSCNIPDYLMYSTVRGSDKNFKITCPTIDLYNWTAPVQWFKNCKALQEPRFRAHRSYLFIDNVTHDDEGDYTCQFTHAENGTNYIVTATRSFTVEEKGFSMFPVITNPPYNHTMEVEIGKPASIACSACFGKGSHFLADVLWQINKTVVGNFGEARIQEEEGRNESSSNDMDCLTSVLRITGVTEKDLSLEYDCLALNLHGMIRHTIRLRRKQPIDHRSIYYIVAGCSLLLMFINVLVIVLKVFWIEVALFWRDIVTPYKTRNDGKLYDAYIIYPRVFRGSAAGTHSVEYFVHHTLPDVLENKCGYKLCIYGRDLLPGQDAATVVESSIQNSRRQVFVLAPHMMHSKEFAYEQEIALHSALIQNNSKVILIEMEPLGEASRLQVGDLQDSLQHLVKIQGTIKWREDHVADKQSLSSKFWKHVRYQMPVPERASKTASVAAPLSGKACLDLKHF

3E10 mAb (antibody): the % of cells in the upper right quadrant (3E10+ CD4+) stood at 11.1%.
